Assay [1] has as its target T1, full-length BAP1 (BRCA-1-associated protein 1) (human), Q92560.
T1 chain: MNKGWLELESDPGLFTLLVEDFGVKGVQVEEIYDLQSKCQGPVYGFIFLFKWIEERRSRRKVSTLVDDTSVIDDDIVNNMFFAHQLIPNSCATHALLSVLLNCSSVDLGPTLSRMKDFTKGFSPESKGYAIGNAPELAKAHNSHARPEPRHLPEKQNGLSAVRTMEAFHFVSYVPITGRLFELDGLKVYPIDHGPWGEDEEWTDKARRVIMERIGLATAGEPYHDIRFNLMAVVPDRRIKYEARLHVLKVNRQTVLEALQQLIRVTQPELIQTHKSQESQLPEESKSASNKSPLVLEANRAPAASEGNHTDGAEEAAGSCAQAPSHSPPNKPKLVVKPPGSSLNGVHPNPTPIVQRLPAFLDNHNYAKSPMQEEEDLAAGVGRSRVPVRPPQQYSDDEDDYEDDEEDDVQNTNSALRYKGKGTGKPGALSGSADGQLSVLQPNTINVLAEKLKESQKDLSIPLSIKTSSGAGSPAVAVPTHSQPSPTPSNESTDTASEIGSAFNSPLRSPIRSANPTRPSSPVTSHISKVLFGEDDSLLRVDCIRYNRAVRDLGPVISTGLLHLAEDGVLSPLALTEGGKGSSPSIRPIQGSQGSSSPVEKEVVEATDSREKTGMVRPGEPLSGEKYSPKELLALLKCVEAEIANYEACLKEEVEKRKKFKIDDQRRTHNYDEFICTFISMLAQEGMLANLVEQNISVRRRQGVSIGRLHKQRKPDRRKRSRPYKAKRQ
Description: SEC-MALS; miniDawn detector in line with Superdex S75 10/30 (ASXL1DEU), Superose 6 10/30 (BAP1) or Superdex S200 10/30 (BAP1/ASXL1DEU); 10 mM HEPES pH 7.5, 150 mM NaCl, 0.5 mM TCEP, 4 °C; molecular weights from the refractive index signal. The settings on record: remark: other sources report otherwise. On the technique in general: SEC sorts molecules by how far they enter the pores of the column.

The target in assay [2] is T2, full-length BAP1 (BRCA-1-associated protein 1) (human, UniProt Q92560 1-729).
T2 construct: BAP1, uniprot Q92560, full length; Vector pFastBac-NKI-his-3C-LIC; no removal of the tag is described; also called FL BAP1; WT BAP1; source: Sf9 cells, purified (Ni2+ chelating sepharose, Poros HQ anion exchange, Superose 6 SEC)
T2 sequence (looked up): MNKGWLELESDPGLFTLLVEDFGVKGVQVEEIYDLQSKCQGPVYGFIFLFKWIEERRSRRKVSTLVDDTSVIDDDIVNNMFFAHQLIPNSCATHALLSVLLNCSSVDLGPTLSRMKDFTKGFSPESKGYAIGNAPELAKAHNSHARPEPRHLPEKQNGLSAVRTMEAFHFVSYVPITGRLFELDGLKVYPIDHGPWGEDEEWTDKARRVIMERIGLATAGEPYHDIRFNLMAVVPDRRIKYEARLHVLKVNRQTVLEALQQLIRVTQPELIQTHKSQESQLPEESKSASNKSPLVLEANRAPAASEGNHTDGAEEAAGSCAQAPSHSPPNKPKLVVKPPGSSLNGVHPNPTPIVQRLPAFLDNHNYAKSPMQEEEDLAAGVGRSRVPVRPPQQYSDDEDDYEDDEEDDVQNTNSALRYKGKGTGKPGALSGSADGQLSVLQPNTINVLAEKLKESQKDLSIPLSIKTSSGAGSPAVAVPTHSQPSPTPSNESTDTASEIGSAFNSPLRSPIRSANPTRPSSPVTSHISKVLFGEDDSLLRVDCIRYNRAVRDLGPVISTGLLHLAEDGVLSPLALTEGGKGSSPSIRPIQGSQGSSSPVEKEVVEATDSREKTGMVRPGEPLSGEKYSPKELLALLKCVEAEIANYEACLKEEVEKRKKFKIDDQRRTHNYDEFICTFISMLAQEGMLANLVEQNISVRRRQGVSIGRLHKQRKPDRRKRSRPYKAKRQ
Put plainly: ITC; VP-ITC at 25 °C; 25 mM HEPES pH 7.5, 150 mM NaCl, 10% glycerol, 0.5 mM TCEP; 30 μM ASXL1DEU (syringe) titrated into 13 μM BAP1 variant (cell), 10 or 5 μl injections; one-site binding model. The note with it: both partners purified. Background: ITC needs no label: the signal is the heat of the interaction.

The target in assay [3] is T3, BAP1 1-710 (lacks the C-terminal extension) (human, UniProt Q92560 1-710).
T3 construct: BAP1, uniprot Q92560, residues 1-710; Vector pFastBac-NKI-his-3C-LIC; source: Sf9 cells, purified (Ni2+ chelating sepharose, Poros HQ anion exchange, Superose 6 SEC)
T3 sequence (looked up): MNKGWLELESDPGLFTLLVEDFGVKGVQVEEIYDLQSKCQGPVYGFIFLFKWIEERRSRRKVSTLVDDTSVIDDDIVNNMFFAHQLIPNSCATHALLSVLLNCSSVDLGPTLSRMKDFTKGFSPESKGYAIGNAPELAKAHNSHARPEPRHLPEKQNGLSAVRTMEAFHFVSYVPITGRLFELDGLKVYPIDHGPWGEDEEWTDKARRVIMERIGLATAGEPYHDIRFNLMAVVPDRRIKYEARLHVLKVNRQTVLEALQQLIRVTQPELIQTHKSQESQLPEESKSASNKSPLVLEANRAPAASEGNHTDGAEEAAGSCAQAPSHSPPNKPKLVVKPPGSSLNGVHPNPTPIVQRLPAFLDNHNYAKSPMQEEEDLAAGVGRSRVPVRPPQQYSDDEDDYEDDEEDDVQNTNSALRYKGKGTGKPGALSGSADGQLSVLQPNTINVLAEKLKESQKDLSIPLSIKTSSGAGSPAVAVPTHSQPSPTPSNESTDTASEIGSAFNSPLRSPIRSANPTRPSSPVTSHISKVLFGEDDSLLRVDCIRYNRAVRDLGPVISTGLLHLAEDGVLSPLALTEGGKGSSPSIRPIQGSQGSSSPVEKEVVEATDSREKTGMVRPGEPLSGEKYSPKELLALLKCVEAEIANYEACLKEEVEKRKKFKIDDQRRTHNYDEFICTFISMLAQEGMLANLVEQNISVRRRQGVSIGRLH
Described as above. The settings on record: both partners purified.

The target of assay [4] is T4, BRCA-1-associated protein 1 (BAP1), full length, wild type (human, UniProt Q92560 1-729).
T4 construct: BAP1 (BRCA-1-associated protein 1), human, UniProt Q92560, full length; Cloned into pFastBac-NKI-his-3C-LIC; In isolation it forms dimers and higher order oligomers (SEC-MALLS); also called WT BAP1; full-length BAP1; source: Sf9 cells, purified (Ni2+ chelating sepharose, Poros HQ anion exchange, Superose 6 SEC)
T4 sequence (looked up): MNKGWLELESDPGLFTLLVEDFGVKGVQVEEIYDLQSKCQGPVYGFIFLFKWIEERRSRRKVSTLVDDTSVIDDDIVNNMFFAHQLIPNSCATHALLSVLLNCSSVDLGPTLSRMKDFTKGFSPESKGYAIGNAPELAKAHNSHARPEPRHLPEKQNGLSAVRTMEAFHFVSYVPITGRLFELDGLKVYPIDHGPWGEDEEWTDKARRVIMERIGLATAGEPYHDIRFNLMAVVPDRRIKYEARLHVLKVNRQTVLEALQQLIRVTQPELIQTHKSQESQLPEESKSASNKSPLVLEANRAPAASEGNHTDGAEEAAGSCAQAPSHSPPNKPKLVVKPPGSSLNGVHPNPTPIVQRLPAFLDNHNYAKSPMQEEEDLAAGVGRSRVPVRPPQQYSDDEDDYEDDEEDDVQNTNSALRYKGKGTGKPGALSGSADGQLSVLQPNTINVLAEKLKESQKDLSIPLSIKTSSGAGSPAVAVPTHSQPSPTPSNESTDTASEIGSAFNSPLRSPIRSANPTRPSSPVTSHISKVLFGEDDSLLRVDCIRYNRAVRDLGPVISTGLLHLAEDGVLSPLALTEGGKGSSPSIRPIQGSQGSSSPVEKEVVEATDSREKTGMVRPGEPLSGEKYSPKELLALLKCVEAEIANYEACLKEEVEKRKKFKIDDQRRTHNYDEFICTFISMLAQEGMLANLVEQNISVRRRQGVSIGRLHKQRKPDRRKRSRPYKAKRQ
Description: ITC; 30 μM ASXL1^DEU in the syringe titrated (10 or 5 μl injections) into 13 μM BAP1 variant in the cell; 25 °C; 25 mM HEPES pH 7.5, 150 mM NaCl, 10% glycerol, 0.5 mM TCEP; one-site binding model. The note with it: both partners purified.

For assay [5], the target named is T4, BRCA-1-associated protein 1 (BAP1), …. Put plainly: SEC-MALS; SEC-MALLS, miniDawn detector; Superdex S75 10/30 (ASXL1^DEU), Superose 6 10/30 (BAP1) or Superdex S200 10/30 (BAP1/ASXL1^DEU); 10 mM HEPES pH 7.5, 150 mM NaCl, 0.5 mM TCEP; 4 °C. The settings on record: both partners purified.

B1: full-length BAP1 (BRCA-1-associated protein 1), Q92560 1-729 (enzyme)
chain: MNKGWLELESDPGLFTLLVEDFGVKGVQVEEIYDLQSKCQGPVYGFIFLFKWIEERRSRRKVSTLVDDTSVIDDDIVNNMFFAHQLIPNSCATHALLSVLLNCSSVDLGPTLSRMKDFTKGFSPESKGYAIGNAPELAKAHNSHARPEPRHLPEKQNGLSAVRTMEAFHFVSYVPITGRLFELDGLKVYPIDHGPWGEDEEWTDKARRVIMERIGLATAGEPYHDIRFNLMAVVPDRRIKYEARLHVLKVNRQTVLEALQQLIRVTQPELIQTHKSQESQLPEESKSASNKSPLVLEANRAPAASEGNHTDGAEEAAGSCAQAPSHSPPNKPKLVVKPPGSSLNGVHPNPTPIVQRLPAFLDNHNYAKSPMQEEEDLAAGVGRSRVPVRPPQQYSDDEDDYEDDEEDDVQNTNSALRYKGKGTGKPGALSGSADGQLSVLQPNTINVLAEKLKESQKDLSIPLSIKTSSGAGSPAVAVPTHSQPSPTPSNESTDTASEIGSAFNSPLRSPIRSANPTRPSSPVTSHISKVLFGEDDSLLRVDCIRYNRAVRDLGPVISTGLLHLAEDGVLSPLALTEGGKGSSPSIRPIQGSQGSSSPVEKEVVEATDSREKTGMVRPGEPLSGEKYSPKELLALLKCVEAEIANYEACLKEEVEKRKKFKIDDQRRTHNYDEFICTFISMLAQEGMLANLVEQNISVRRRQGVSIGRLHKQRKPDRRKRSRPYKAKRQ
With B1, the stoichiometry N (usually the number of molecules, sites or subunits per partner or assembly) in assay [1] is 2.

B2: ASXL1 DEUBAD domain (aa 238-390) (domain or fragment, human, UniProt Q8IXJ9 238-390, looked up)
chain: ATGQMKRNRGEEIDFETPGSILVNTNLRALINSRTFHALPSHFQQQLLFLLPEVDRQVGTDGLLRLSSSALNNEFFTHAAQSWRERLADGEFTHEMQVRIRQEMEKEKKVEQWKEKFFEDYYGQKLGLTKEESLQQNVGQEEAEIKSGLCVPG
notes: ASXL1, uniprot Q8IXJ9, DEUBAD domain, residues 238-390; Vector pET-NKI-his-3C-LIC; also called His-ASXL1DEU; source: E. coli, purified (Ni2+ chelating sepharose, Poros HQ anion exchange, Superdex 75 SEC)
Consider B2, for which the “stoichiometry N” value in assay [2] is 0.37 ± 0.002. In assay [3], binding was characterised by a dissociation constant (Kd) of 5 ± 0.16 nM and the “stoichiometry N” value amounted to 0.27 ± 0.001.

B3: ASXL1 DEUBAD domain (aa 238-390) (domain or fragment, human, UniProt Q8IXJ9 238-390, looked up)
chain: ATGQMKRNRGEEIDFETPGSILVNTNLRALINSRTFHALPSHFQQQLLFLLPEVDRQVGTDGLLRLSSSALNNEFFTHAAQSWRERLADGEFTHEMQVRIRQEMEKEKKVEQWKEKFFEDYYGQKLGLTKEESLQQNVGQEEAEIKSGLCVPG
notes: ASXL1 (additional sexcombs like 1), human, UniProt Q8IXJ9, DEUBAD domain, aa 238-390; Cloned into pET-NKI-his-3C-LIC; printed as His-ASXL1^DEU; Monomeric in SEC-MALLS; also called His-ASXL1^DEU; WT ASXL1^DEU; source: E. coli, purified (Ni2+ chelating sepharose, Poros HQ anion exchange, Superdex 75 SEC)
With B3, in assay [4], the equilibrium dissociation constant (Kd) – broadly, the equilibrium constant for the complex coming apart – was determined as 18 nM and the “stoichiometry N” value lay in the range of 0.25 to 0.5. Further, the “stoichiometry N” value in assay [5] is 2 BAP1 molecules per ASXL1^DEU molecule.

B4: ASXL1 DEUBAD domain (aa 238-390) N310A/E311K/F312A (domain or fragment, human, UniProt Q8IXJ9 238-390, looked up)
chain: ATGQMKRNRGEEIDFETPGSILVNTNLRALINSRTFHALPSHFQQQLLFLLPEVDRQVGTDGLLRLSSSALNAKAFTHAAQSWRERLADGEFTHEMQVRIRQEMEKEKKVEQWKEKFFEDYYGQKLGLTKEESLQQNVGQEEAEIKSGLCVPG
notes: ASXL1, uniprot Q8IXJ9, DEUBAD domain, residues 238-390, triple mutant of the NEF region; Variant of Dm4; also called ASXL1NEF DEU; NEF; source: E. coli, purified (Ni2+ chelating sepharose, Poros HQ anion exchange, Superdex 75 SEC)
Turning to B4, in assay [2], binding was characterised by a dissociation constant (Kd) of 46 ± 0.14 nM and the “stoichiometry N” value turned out to be 0.32 ± 0.003.

B5: ASXL1 DEUBAD domain triple mutant N310A/E311K/F312A (domain or fragment, human, UniProt Q8IXJ9 238-390, looked up)
chain: ATGQMKRNRGEEIDFETPGSILVNTNLRALINSRTFHALPSHFQQQLLFLLPEVDRQVGTDGLLRLSSSALNAKAFTHAAQSWRERLADGEFTHEMQVRIRQEMEKEKKVEQWKEKFFEDYYGQKLGLTKEESLQQNVGQEEAEIKSGLCVPG
notes: ASXL1, human, UniProt Q8IXJ9, DEUBAD domain, aa 238-390, with N310A, E311K and F312A; Variant of m2; also called ASXL1NEF^DEU; NEF; source: E. coli, purified (Ni2+ chelating sepharose, Poros HQ anion exchange, Superdex 75 SEC)
Molecule B5 returned a Kd in assay [4] of 45 nM.

(Values after publication PMC4729829, “BAP1/ASXL1 recruitment and activation for H2A deubiquitination” (Nature Communications, 2016).)
